Read-outs that look alike come from different tables or passages of the source.
What was measured:
[1] = target: prefusion stabilized trimeric SARS-CoV-2 spike protein ectodomain (SARS-CoV-2) (UniProt P0DTC2)
[2] = target: prefusion stabilized trimeric SARS-CoV-2 spike protein ectodomain (SARS-CoV-2) (UniProt P0DTC2); remark: listed apart in the source
[3] = target: prefusion stabilized trimeric SARS-CoV-2 spike protein ectodomain (SARS-CoV-2) (UniProt P0DTC2); remark: listed apart in the source
[4] = target: prefusion stabilized trimeric SARS-CoV-2 spike protein ectodomain (SARS-CoV-2) (UniProt P0DTC2); experiment: ELISA, S-ECD coated on plate, ACE2 protein titrated, anti-GFP detection
[5] = target: prefusion stabilized trimeric SARS-CoV-2 spike protein ectodomain (SARS-CoV-2) (UniProt P0DTC2); remark: listed apart in the source

ACE2-flexible-3HB (from UniProt Q9BYF1 18-615) (receptor)
Kd [1]: 4.4 nM
Kd [2]: 1.31 nM
IC50 [3]: 0.06 nM

ACE2-flexible-foldon (from UniProt Q9BYF1 18-615) (receptor)
Kd [1]: 0.34 nM
Kd [2]: 0.52 nM
IC50 [3]: 0.07 nM

ACE2-rigid-3HB (from UniProt Q9BYF1 18-615) (receptor)
Kd [2]: < 0.001 nM
IC50 [4]: 0.03 nM

ACE2-rigid-foldon (from UniProt Q9BYF1 18-615) (receptor)
Kd [2]: < 0.001 nM
IC50 [4]: 0.03 nM

ACE2-short-foldon (from UniProt Q9BYF1 18-615) (receptor)
Kd [2]: 0.53 nM
IC50 [5]: 0.05 nM

Monomeric ACE2 (ACE2 (18-615)-(GGGGS)5-HRV3C-eGFP-His8) (from UniProt Q9BYF1 18-615) (receptor)
Kd [1]: 34 nM
IC50 [3]: 26.6 nM
IC50 [4]: 27 nM

— patent publication US20240035012A1
